From patent US20230272086A1 (CHIA TAI TIANQING PHARMACEUTICAL GROUP, published 2023)
Substitutions are numbered along the chain they refer to.

T1: recombinant protein containing hST2 extracellular domain with mouse antibody heavy chain Fc tag (hST2-ECD-mFc) (human)
T1 construct: Used for SPR and for ELISA of chimeric and humanized antibodies; also called human ST2 antigen
T1 chain: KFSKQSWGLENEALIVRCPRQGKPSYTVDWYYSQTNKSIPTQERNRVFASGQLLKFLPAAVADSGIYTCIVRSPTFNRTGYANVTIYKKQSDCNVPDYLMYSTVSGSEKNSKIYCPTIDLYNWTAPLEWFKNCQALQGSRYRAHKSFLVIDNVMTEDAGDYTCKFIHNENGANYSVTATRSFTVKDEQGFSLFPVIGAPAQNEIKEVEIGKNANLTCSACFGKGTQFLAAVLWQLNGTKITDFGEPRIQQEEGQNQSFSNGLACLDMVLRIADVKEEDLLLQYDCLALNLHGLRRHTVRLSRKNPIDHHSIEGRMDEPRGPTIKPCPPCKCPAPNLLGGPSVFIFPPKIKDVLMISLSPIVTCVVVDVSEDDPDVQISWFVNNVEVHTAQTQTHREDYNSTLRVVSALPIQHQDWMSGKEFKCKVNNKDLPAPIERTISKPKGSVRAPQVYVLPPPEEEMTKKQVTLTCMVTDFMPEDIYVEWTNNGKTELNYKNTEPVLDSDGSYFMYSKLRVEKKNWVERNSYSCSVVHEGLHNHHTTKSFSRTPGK

B1: RG6149 (antibody Ab2 in CN104334582, prepared in-house) (antibody, human IgG2, kappa, V domains shown)
VH: EVQLVQSGAEVKKPGESLKISCKGSGYSFTNYWIGWVRQMPGKGLEWMGIIYPGNSDTRFSPSFQGQVTISADKSITTAYLQWSSLKASDTAMYYCARHGTSSDYYGLDVWGQGTTVTVSS
VL: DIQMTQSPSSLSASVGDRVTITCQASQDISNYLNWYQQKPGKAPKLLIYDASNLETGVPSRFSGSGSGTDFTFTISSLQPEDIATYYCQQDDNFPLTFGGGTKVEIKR
notes: Control anti-ST2 antibody
B2: GSK3772847 (antibody STLM208 in CN104411333, prepared in-house) (antibody, human IgG2, kappa, V domains shown)
VH: EVQLLESGGGLVQPGGSLRLSCAASGFTFSIYDMIWVRQAPGKGLEWVSSIRGEGGGTYYADSVKGRFTISRDNSKNTLYLQMNSLRAEDTAVYYCARDPWSTEGSFFVLDYWGQGTLVTVSS
VL: EIVLTQSPATLSLSPGERATLSCRASQSVDDDLAWYQQKPGQAPRLLIYDASNRATGIPARFSGSGSGTDFTLTISSLEPEDFAVYYCQQYITAPLTFGQGTKVEIKR
notes: Control anti-ST2 antibody
B3: Chimeric 31C8 (antibody, human IgG2, kappa, V domains shown)
VH: QVQLQQSGPELVRPGASVTLSCKASGYIFIDSEMHWVKQTPVHGLEWIGAIDPETGDTVYNQKFKGKATLTADKSSSTASMELSSLTSEDSAVYYCTGSTTDYYFAYWGQGTTLTVSS
VL: DIVMTQAAFSNPVTLGTSASISCRSSKSLLHSNGIIYLYWYLQKPGQSPQLLIYQMSNLASGVPDRFSSSGSGTDFTLRISRVEAEDVGVYYCAQNLELPFTFGSGTKLEIKR
notes: also called xi31C8
B4: Humanized 31C8-1.1 (antibody, human IgG2, kappa, V domains shown)
VH: EVQLVQSGAEVKKPGATVKISCKASGYIFIDSEMHWVQQAPGKGLEWMGAIDPETGDTVYAEKFQGRVTITADKSSSTAYMELSSLRSEDTAVYYCTGSTTDYYFAYWGQGTLVTVSS
VL: DIQMTQSPSSLSASVGDRVTITCRSSKSLLHSNGIIYLYWYQQKPGKAPKLLIYQLSNLASGVPSRFSSSGSGTDFTLTISSLQPEDFATYYCAQNLELPFTFGQGTKVEIKR
notes: also called hz31C8-1.1; hz31C81-1.1
B5: Humanized 31C8-1.2 (antibody, human IgG2, kappa, V domains shown)
VH: B4 VH with E1Q, E10K, E62K, Q65K
VL: B4 VL
notes: also called hz31C8-1.2; hz31C81-1.2

Biological target: T1, recombinant protein containing hST2 …
Assay: ELISA, plate coated with hST2-ECD-mFc, antibody heated at 72 °C for 5 min; antibody heated at 72° C. for 5 min (Heated column, not the unheated 0.1428 nM)
Experimental: The anti-ST2 antibodies were diluted with PBS buffer to a concentration of 1.5 mg/mL. After being treated at 72° C. for 5 min, the samples were assayed by ELISA for their binding activity for an antigen The ELISA procedure is as follows: A 96-well plate was coated with 2 µg/mL hST2-ECD-mFc as the antigen at 100 µL/well and incubated at 4° C. overnight. After the antigen not adsorbed was well washed off, the non-specific binding sites were blocked with a blocking buffer (PBST containing 1% bovine serum albumin). After the plate was washed three times with a washing buffer (PBST, PBS containing 0.05% (v/v) Tween 20), the anti-ST2 antibodies (serially diluted 3-fold from an initial concentration of 1.5 µg/mL to 8 concentrations) were added at 100 µL/well, and the plate was incubated at 37° C. for 1 h. […] After the plate was incubated at room temperature for 5 min, a stop solution (2 N H₂SO₄) was added to stop the reactions. The signals were read at 450 nm using a plate reader (PE, Envision). The data were analyzed using GraphPad Prism5, and the EC₅₀ values were calculated.

Row | EC50 [nM] | Binder
1 | 1.06 | B1

Biological target: T1, recombinant protein containing hST2 …
Assay: ELISA, plate coated with hST2-ECD-mFc
Experimental: ST2 binding screening and analysis of antibodies were performed by ELISA using hST2-ECD-mFc (for assays of chimeric and humanized antibodies), hST2-ECD-hFc protein (for assays of hybridoma antibodies) and Cyno-ST2-his (Sino biological, 90915-C08H) as antigens. A high-adsorption 96-well plate (Costar, 9018) was coated with 2 µg/mL hST2-ECD-mFc or Cyno-ST2-his antigen at 100 µL/well and incubated overnight at 4° C. After the antigen not adsorbed was well washed off, the non-specific binding sites were blocked with a blocking buffer (PBS containing 2% bovine serum albumin). After the plate was washed three times with a washing buffer (PBS containing 0.05% (v/v) Tween 20), the anti-ST2 antibodies (serially diluted 3-fold from an initial concentration of 10 nM to 8 concentrations: 3.333 nM, 1.111 nM, 0.370 nM, 0.123 nM, 0.041 nM, 0.014 nM, 0.005 nM, and 0.002 nM) were added at 100 µL/well, and the plate was incubated at room temperature for 1 h. After the plate was washed with the washing buffer, a horseradish peroxidase (HRP)-conjugated secondary antibody was added, and the plate was incubated for another 60 min. After the plate was washed with the washing buffer, the substrate TMB solution (Thermo, 00-4201-56) was added at 100 µL/well, and the plate was incubated at room temperature for 2 min. A stop solution (2 N H₂SO₄) was added at 100 µL/well to terminate the reactions. Colorimetric signals were generated and read at 450 nm using a microplate reader (PE, Envision). The data were analyzed using GraphPad Prism5, and the EC₅₀ values were calculated.
The humanized antibodies hz31C81-1.1 (the amino acid sequence of the heavy chain set forth in SEQ ID NO: 75 and the amino acid sequence of the light chain set forth in SEQ ID NO: 81) and hz31C8-1.2 (the amino acid sequence of the heavy chain set forth in SEQ ID NO: 77 and the amino acid sequence of the light chain set forth in SEQ ID NO: 81) were subjected to affinity, binding, blocking and cell function analyses using the methods described in Example 4, Example 5, Example 6, Example 7, Example 8, Example 9 and Example 10.

Row | EC50 [nM] | Binder
2 | 0.127 | B2
3 | 0.0865 | B3
4 | 0.113 | B1
5 | 0.0879 | B4
6 | 0.0937 | B5
